Assay [1] concerns the target T1, OsHSP70 aa 138-360 (Oryza sativa).
T1 construct: bait, Gal4 DBD fusion; also called PN20775; heat shock protein hsp70
Kind of assay: Y2H; output trait library. The essentials:
(§1)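 Rice protein fragments, each defined by an amino-acid range, served as bait against rice prey clone libraries in an automated, high-throughput yeast two-hybrid screen supplied by Myriad Genetics Inc. Prey clones that interacted were retrieved from the output trait library. The sequences encoding the retrieved fragments were compared against databases by BLAST analysis to identify the full-length genes. Each value records whether an interaction was detected.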

For assay [2], the target named is T2, OsHOS59 aa 1-206 (Oryza sativa, UniProt Q94LW4 113-311).
T2 construct: bait, Gal4 DBD fusion; also called PN20559
T2 sequence: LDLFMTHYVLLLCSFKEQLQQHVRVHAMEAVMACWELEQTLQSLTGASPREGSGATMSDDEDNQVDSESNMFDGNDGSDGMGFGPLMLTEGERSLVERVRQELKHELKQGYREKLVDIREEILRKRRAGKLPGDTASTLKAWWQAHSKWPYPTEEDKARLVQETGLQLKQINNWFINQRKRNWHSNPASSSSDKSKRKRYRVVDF
Briefly: Y2H; output trait library. The essentials:
(§2)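 Myriad Genetics Inc. (Salt Lake City, Utah) supplied the automated, high-throughput yeast two-hybrid assay used to detect protein-protein interactions. A bait clone encoding a defined amino-acid fragment of a rice protein was screened against a rice prey library, either the input trait or the output trait library. To identify the interacting proteins, prey clones were retrieved and their encoding sequences were compared against databases by BLAST.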

Assay [3] has as its target T3, OsCAA90866 aa 100-250 (Oryza sativa).
T3 construct: bait, Gal4 DBD fusion; also called PN20311; O. sativa Chilling-Inducible Protein CAA90866
T3 chain: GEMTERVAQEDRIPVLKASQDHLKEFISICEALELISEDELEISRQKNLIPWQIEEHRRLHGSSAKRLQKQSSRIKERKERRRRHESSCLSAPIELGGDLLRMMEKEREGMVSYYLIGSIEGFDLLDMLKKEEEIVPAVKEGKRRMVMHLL
Kind of assay: Y2H; input trait library. The essentials: as §2

The target of assay [4] is T4, OsTFX1 aa 400-629 (Oryza sativa).
T4 construct: bait, Gal4 DBD fusion; also called PN19697; O. sativa Putative Transcription Factor X1
Kind of assay: Y2H; output trait library. The essentials: as §2

The target in assay [5] is T5, OsMADS45 aa 50-198 (Oryza sativa, UniProt P0C5B0 50-198).
T5 construct: bait, Gal4 DBD fusion; also called PN20231; O. sativa MADS box protein MADS45
T5 sequence: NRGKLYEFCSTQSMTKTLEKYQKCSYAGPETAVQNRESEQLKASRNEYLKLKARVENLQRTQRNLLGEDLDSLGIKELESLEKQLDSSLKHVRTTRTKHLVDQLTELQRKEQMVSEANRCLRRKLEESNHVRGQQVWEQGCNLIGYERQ
Briefly: Y2H; output trait library. The essentials: as §2

For assay [6], the target named is T6, Os018989-4003 aa 90-220 (Oryza sativa).
T6 construct: bait, Gal4 DBD fusion; also called PN21044
T6 chain: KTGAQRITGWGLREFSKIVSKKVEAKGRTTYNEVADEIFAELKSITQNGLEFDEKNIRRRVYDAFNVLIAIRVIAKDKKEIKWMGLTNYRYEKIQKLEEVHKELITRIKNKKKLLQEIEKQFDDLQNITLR
Briefly: Y2H; input trait library. In outline:
as §2

In assay [7] the target is T5, OsMADS45 aa 50-198. Briefly: Y2H; input trait library. In outline: as §2
Assay [8] deals with T7, OsCYCOS2 aa 50-233 (Oryza sativa, UniProt A2YH60 50-233).
T7 construct: bait, Gal4 DBD fusion; also called PN20257; O. sativa Cyclin OsCYCOS2
T7 chain: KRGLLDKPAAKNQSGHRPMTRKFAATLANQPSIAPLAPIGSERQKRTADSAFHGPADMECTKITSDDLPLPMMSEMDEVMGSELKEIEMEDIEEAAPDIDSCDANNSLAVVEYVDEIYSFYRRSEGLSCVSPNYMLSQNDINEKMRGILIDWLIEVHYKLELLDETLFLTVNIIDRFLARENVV
Briefly: Y2H; input trait library. In outline: as §2

Assay [9] addresses T8, OsSGT1 aa 200-368 (Oryza sativa, UniProt Q0JL44 200-367).
T8 construct: bait, Gal4 DBD fusion; also called PN20285
T8 sequence: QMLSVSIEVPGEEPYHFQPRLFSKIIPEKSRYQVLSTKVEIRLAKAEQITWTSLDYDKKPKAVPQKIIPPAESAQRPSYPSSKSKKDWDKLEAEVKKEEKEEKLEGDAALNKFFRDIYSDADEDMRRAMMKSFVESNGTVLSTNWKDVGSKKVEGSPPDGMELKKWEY
Kind of assay: Y2H; output trait library. The essentials: as §1

Ends that are not written are not given here.

T1 sequence (chain, as listed by the source): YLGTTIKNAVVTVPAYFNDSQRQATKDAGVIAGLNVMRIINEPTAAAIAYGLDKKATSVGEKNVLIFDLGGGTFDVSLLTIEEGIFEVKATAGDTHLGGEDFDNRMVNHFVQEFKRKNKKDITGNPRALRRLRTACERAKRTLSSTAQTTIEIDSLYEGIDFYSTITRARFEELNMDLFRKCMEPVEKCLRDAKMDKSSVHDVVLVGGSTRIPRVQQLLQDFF
T4 sequence (chain, as listed by the source): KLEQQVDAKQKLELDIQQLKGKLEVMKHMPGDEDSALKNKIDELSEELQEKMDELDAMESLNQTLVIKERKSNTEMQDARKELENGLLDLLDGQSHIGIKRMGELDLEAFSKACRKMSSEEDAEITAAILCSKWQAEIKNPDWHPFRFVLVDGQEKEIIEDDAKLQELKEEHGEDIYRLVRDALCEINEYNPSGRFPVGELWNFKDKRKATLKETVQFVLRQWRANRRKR

B1: OsPN29117 aa 11-160 (other)
chain: GPAVRLRVSHGASFRDVAVPAHSTFGELKGVLTQATGVEPERQRLFFRGKEKSDNEFLHTAGVKDGAKLLLLEKPAPANVEQRAEPVIMDESMMKACEAVGRVRAEVDRLSAKVCDLEKSVFAGRKIEDKDFVVLTELLMMELLKLDGIE
notes: prey, AD fusion
Consider B1, for which the binding result in [1] was “binds”.

B2: OsPN23829 aa 1-247 (other)
chain: MALSVEKTSSGREYKVKDLSQADFGRLEIELAEVEMPGLMACRAEFGPSQPFKGARISGSLHMTIQTAVLIETLTALGAEVRWCSCNIFSTQDHAAAAIARDSAAVFAWKGETLEEYWWCTERCLDWGVGGGPDLIVDDGGDATLLIHEGVKAEEEFEKSGKVPDPESTDNAEFKIVLTIIRDGLKSDPSKYRKMKERLVGVSEETTTGVKRLYQMQETGALLFPAINVNDSVTKSKFDNLYGCRHS
notes: prey, AD fusion
As for B2, the binding result in assay [2] is listed as “binds”.

B3: OsPN23225 aa 639-792 (other)
chain: FGIRILDEAQQCIEELQCPEYYSEIVKEAINLALDKGPNFIDPLVRLLEHLHTKKIFKTEDLKTGCLLYAALLEDIGIDLPLAPALFGEVVARLSLSCSLSFEVVEEILKAVEDTYFRKGIFDAVMKTMGGNSSGQAILSSHAVVIDACNKLLK
notes: prey, AD fusion; also called Novel Protein PN23225, Similar to Tritticum aestivum Initiation Factor (iso)4f p82 Subunit
Regarding B3, the binding result in [3] is listed as “binds”.

B4: OsPN23829 prey clone -4-226 (other)
chain: MALSVEKTSSGREYKVKDLSQADFGRLEIELAEVEMPGLMACRAEFGPSQPFKGARISGSLHMTIQTAVLIETLTALGAEVRWCSCNIFSTQDHAAAAIARDSAAVFAWKGETLEEYWWCTERCLDWGVGGGPDLIVDDGGDATLLIHEGVKAEEEFEKSGKVPDPESTDNAEFKIVLTIIRDGLKSDPSKYRKMKERLVGVSEETTTGVKRLYQMQETGALLFPA
notes: prey, AD fusion
B4: the binding result in assay [4] was “binds”.

B5: OsMADS14 aa 124-223 (other)
chain: ELQQLEQQLENSLKHIRSRKSQLMLESINELQRKEKSLQEENKVLQKELVEKQKVQKQQVQWDQTQPQTSSSSSSFMMREALPTTNISNYPAAAGERIED
notes: prey, AD fusion; also called PN20910
As for B5, the binding result in [5] was “binds”.

B6: OsPN23829 prey clone -2-195 (other)
chain: MALSVEKTSSGREYKVKDLSQADFGRLEIELAEVEMPGLMACRAEFGPSQPFKGARISGSLHMTIQTAVLIETLTALGAEVRWCSCNIFSTQDHAAAAIARDSAAVFAWKGETLEEYWWCTERCLDWGVGGGPDLIVDDGGDATLLIHEGVKAEEEFEKSGKVPDPESTDNAEFKIVLTIIRDGLKSDPSKYRKM
notes: prey, AD fusion
In the case of B6, the binding result in assay [4] was “binds”.

B7: OsAAK72891 aa 322-549 (other)
chain: EIITYFKSEMSKLKRMHELDLQEKTEELFKFKREKGLLTLKNDVEFEPLRKKIPQIISRMDQIISKNIKMPSLCMTNDGLDERCISAKRIDSLYYENQHLRGLLADNMKDVKELSSQLSEASKEMSIQLSSEDDLLRQIAKIKEEYEDLQIEAGVRDGVYQTITRKLLDDSMNSMHDAATNFSTELSSLEAMISEKEKALCLSNEENRMLKEKIAELEQCLIQDKQED
notes: prey, AD fusion; also called PN26317
Consider B7, for which the binding result in [6] is “binds”.

B8: OsPN23495 aa 39-165 (other)
chain: RLMVLRMAMDIQKFMQNPQLHEFEFQHFPTSYLRCAAHRVAQHYGLETTVADSLVDGSVSKIVAKKTSESKLPVIALSEVPSKQARNEHEAAEKLKFVICPRPKAFQNGAGDAGAKNNAARTVEERI
notes: prey, AD fusion; also called Novel protein PN23495
Take B8: in assay [7], the binding result is listed as “binds”.

B9: PN23416 aa 130-176 (other)
chain: YFEKQRAMNQVRQRVFQQAVQGALGTLNSCLNTELHFRTIRANISIL
modifications: not fully specified
notes: prey, AD fusion; also called Chloroplast ATPase I Subunit
In the case of B9, the binding result in assay [8] is on record as “binds”.

B10: PN23949 aa 244-418 (other)
chain: HKLKSSLILMPMVSLLLLLLIRVLGRNRISPSPALSTLPKDEVERMVEEADKFAQEDKEKRDAIDTKNQADSVVYQTEKQLKELGDKVPAPVKEKVDAKLNELKEAIAGGSTQSMKDAMAALNEEVMQIGQAMYNQQPNAGAAGPTPGADAGPTSSGGKGPNDGDVIDADFTDSN
notes: prey, AD fusion; also called HSP70-like
Consider B10, for which, in [9], the binding result is on record as “binds”.

B11: OsSGT1 aa 9-227 (other)
chain: LESKAKAAFVDDDFELAAELYTQAIEASPATAELYADRAQAHIKLGNYTEAVADANKAIELDPSMHKAYLRKGAACIRLEEYQTAKAALELGYSFASGDSRFTRLMKECDERIAEELTEVPVKKAEDGAAAPSVASFVEEKDDAANMDNTPPMVEVKPKYRHDFYNSATEVVLTIFAKGVPAENVVVDFGEQMLSVSIEVPGEEPYHFQPRLFSKIIPE
notes: prey, AD fusion; also called PN20285
With B11, in assay [9], the binding result is reported as “binds”.

B12: OsMADS14 aa 82-197 (other)
chain: SAESDTQGNWCHEYRKLKAKVETIQKCQKHLMGEDLESLNLKELQQLEQQLENSLKHIRSRKSQLMLESINELQRKEKSLQEENKVLQKELVEKQKVQKQQVQWDQTQPQTSSSSS
notes: as for B5
Take B12: the binding result in assay [5] is reported as “binds”.

B13: OsAAK72891 aa 342-638 (other)
chain: LQEKTEELFKFKREKGLLTLKNDVEFEPLRKKIPQIISRMDQIISKNIKMPSLCMTNDGLDERCISAKRIDSLYYENQHLRGLLADNMKDVKELSSQLSEASKEMSIQLSSEDDLLRQIAKIKEEYEDLQIEAGVRDGVYQTITRKLLDDSMNSMHDAATNFSTELSSLEAMISEKEKALCLSNEENRMLKEKIAELEQCLIQDKQEDPEVIKQESTEIILRDIEVAPHISPRRSHETPKQDMQYDELVKLNSSLEIASAALKEVENKNIDYNGIFTKNEQEKQLECILISIMKLSK
notes: prey, AD fusion; also called PN26317; O. sativa Putative Myosin Heavy Chain
As for B13, in [6], the binding result is reported as “binds”.

B14: OsPN29117 aa 29-160 (other)
chain: VPAHSTFGELKGVLTQATGVEPERQRLFFRGKEKSDNEFLHTAGVKDGAKLLLLEKPAPANVEQRAEPVIMDESMMKACEAVGRVRAEVDRLSAKVCDLEKSVFAGRKIEDKDFVVLTELLMMELLKLDGIE
notes: prey, AD fusion
Turning to B14, in assay [1], the binding result is listed as “binds”.

B15: OsPN23274 aa 79-210 (other)
chain: GELPRSASLCLREVLLVLQRFKAIVADCSARSRMRLLLESDEMEAELRELNHDLATLLDLLPVVELGLADDVLDVLALASRQCRRCSPAPESEEALKASVLSLIQEIEREIVPERERLEEILVEVGINDPAS
notes: prey, AD fusion; also called Novel Protein PN23274, Similar to A. thaliana ARM Repeat-Containing Protein
In the case of B15, in assay [8], the binding result is “binds”.

B16: OsPN30858 aa 230-400 (other)
chain: VRTFLERTHERCRASYMEAVLEKQSYILLSRNDVESLMRLDPANLSLQNSFGQLDHSIPDAEAVEVEIELSDLLLDMCPIKQENLIHDDQKLILLASLSDSLEYLADSVERLGESFINSSTMLENKNHIHQGRHTRSTSAIPKSLASLANEYRRLAIDCVRVLRLEMQLET
notes: prey, AD fusion; also called Novel Protein PN30858
With B16, the binding result in assay [2] is listed as “binds”.

B17: PN23297 aa 980-1160 (other)
chain: LRLTLERRLRAAGEEAKSVEILKRDKLIESLSAKCAAAKSAAQSEHDKNLLLQRQLDDSLREITMLRSSKIMTAEAERENSNLKNLVESLSKNNSSLEYELTSARKGSDATMKKLKDVEGKCNHLQQNLDKLQEKLTNMENENHVLRQKALNMSPLNNMPMTTKAFPQKFATPIGLPNGEQ
notes: prey, AD fusion; also called 15451591; O. sativa Putative Myosin Heavy Chain
On to B17, for which the binding result in assay [8] is recorded as “binds”.

The values are drawn from patent publication US20060253917A1 (published 2006).
